The target in experiment [1] is T1, CDK1 (Homo sapiens, UniProt P06493).
T1 construct: made in house; host or cells: bacterial culture
The experiment can be described thus: Phosphorylation of peptide substrate in solution, spotted on phosphocellulose plate, scintillation counting. The format is biochemical. The protocol: (§1) The phosphorylation assay mixture typically comprised:
(§2) The phosphorylation of the polymer-conjugated substrate was carried out in a solution containing 5 μL (˜5 μg peptide) of the conjugated substrate, 10 μL of the indicated enzyme, 10 μL of ADB, and 5 μL of γ-^32P-ATP. After incubation at room temperature for 15 minutes, the reaction was stopped by spotting 10 μL of the sample solution on a phosphocellulose plate and washing with water, 1% phosphoric acid solution, water and ethanol. The radioactivity in each well was measured using a Trilux Microbeta 1450 liquid scintillation counter (Wallac).

For experiment [2], the system named is PAK. The experiment is described as above. The format is biochemical. The protocol:
as §1, §2

Experiment [3] addresses T2, PIM (Xenopus laevis, UniProt Q91822).
T2 construct: made in house; host or cells: bacterial culture
Described as above. The format is biochemical. The protocol:
as §1, §2

Experiment [4] deals with T3, S6K (Homo sapiens, UniProt P23443).
T3 construct: made in house
T3 sequence (P23443 whole entry): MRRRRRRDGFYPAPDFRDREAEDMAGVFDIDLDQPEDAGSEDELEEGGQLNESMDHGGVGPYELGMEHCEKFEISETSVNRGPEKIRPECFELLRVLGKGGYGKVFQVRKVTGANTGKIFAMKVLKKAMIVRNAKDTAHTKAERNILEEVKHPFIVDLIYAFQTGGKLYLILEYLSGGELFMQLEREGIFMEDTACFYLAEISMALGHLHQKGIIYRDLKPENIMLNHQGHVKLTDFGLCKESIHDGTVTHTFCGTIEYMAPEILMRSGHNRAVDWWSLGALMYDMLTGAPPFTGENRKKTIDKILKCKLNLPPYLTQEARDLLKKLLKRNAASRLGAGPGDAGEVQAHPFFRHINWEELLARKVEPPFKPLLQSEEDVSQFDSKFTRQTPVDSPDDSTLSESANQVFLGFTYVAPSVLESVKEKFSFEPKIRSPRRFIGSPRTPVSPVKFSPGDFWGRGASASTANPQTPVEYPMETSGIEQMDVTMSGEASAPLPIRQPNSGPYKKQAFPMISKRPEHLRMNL
The experiment is described as above. The format is biochemical. The settings on record: for Ratio: after/before conjugation; for Radioactivity (cpm) Before Conjugation: free peptide before conjugation to polymer; for Radioactivity (cpm) Before Conjugation / Radioactivity (cpm) After conjugation: 15 min room temperature; for Radioactivity (cpm) After conjugation: peptide after conjugation to polymer. How it is done:
as §1, §2

Experiment [5] has as its target T4, PKA (Bos taurus, UniProt P00517).
T4 construct: PKA was isloated from bovine heart; from tissue; host or cells: bovine heart
The experiment is described as above. The format is biochemical, bovine. The protocol:
CDK1, PAK and PIM were grown in bacterial culture at Kinetek Pharmaceuticals. PIM was isolated as described by Palaty et al. (1997) J Biol Chem 272:10514-10521. PKA was isloated from bovine heart. PKB was expressed in insect cells. S6K was isolated according to Grove et al. (1991) Mol Cell Bio 11:5541-5550. Kinase stock solutions were prepared at concentrations of 1-10 mg/mL in 150 mM Tris-Cl (pH 7.5) containing 5 mg/mL BSA and 100 mM MgCl2.
as §1, §2

Experiment [6] deals with T2, PIM. Kind of experiment: Phosphorylation of substrate immobilized on covalent, amine-binding plates. The format is biochemical. The settings on record: amine-binding plate. The protocol:
(§3) The polylysine-conjugated peptide substrate was diluted with a PBS buffer (pH 7.4) to a concentration of 0.1 mg/mL. Then 100 μL of the diluted solution was placed into each well of the covalent, amine-binding plate. The plate was incubated at room temperature for one hour and then washed with the PBS buffer three times and distilled water once. The substrate-immobilized plate was then phosphorylated as using standard assay conditions: 10 μL of the indicated enzyme, 15 μL of ADB and 5 μL of γ-^32P-ATP at room temperature for 15 minutes. After phosphorylation, the plate was rinsed sequentially with water, 1% phosphoric acid solution, water, and ethanol. The radioactivity in each well was determined using a Trilux Microbeta liquid scintillation counter. Two polylysine-conjugated substrates were immobilized on the covalent, amine-binding plates and phosphorylation of these immobilized polylysine-conjugated substrates was carried out. Both systems yielded reasonably high signals and the background signals on these plates were less than 500 cpm.
(§4) Effect of pH. In the case of immobilization to covalent, amine-binding plates, the pH effect was investigated. The immobilization of a conjugated-substrate to an covalent, amine-binding plate was achieved by incubating 100 μL of PBS buffer solution containing 10 μg of the conjugated-substrate at room temperature for an hour. […]

The target in experiment [7] is T5, ERK1 (Homo sapiens, UniProt P27361). Kind of experiment: Phosphorylation of peptide substrate in solution, spotted on phosphocellulose plate, scintillation counting. The format is biochemical. The following applies: for Radioactivity (cpm), polymer effect on the phosphorylation of SEK1-CT by ERK1: SEK1-CT conjugated to the polymer named in the row; for Enhancing effect of polymeric carrier on the substrate activity: SEK1-CT conjugated to the polymer, result in words. How it is done:
as §1, §2

Experiment [8] deals with T5, ERK1. Kind of experiment: Phosphorylation of substrate immobilized on covalent, amine-binding plates. The format is biochemical. The following applies: amine-binding plate. How it is done:
as §3, §4

For experiment [9], the target named is T5, ERK1. Kind of experiment: Phosphorylation of SEK1-CT immobilized on covalent, amine-binding strips. The format is biochemical. The settings on record: conjugation simultaneous with phosphorylation, 15 min. How it is done: Immobilization of SEK1-CT on covalent, amine-binding strips was also accomplished in a stepwise procedure: the polymer was immobilized on a covalent, amine-binding plate first (1 hour), then treated with SMCC (1 hour). Conjugation of SEK1-CT to the immobilized polylysine was achieved simultaneously with the phosphorylation by ERK1. The polymers used were polylysine of MW ˜35,000 and poly(lys, ala) 1:1 copolymer of MW ˜35,000. The assay mixture comprising 5 μL of SEK1-CT, 5 μL of ADB, 10 μL of ERK1 and 10 μL of γ-^32P-ATP was incubated at room temperature for 15 minutes. An aliquot (10 μL) was then spotted on a phosphocellulose plate to stop the reaction. The radioactivity on the plate was determined using a Trilux Microbeta liquid scintillation counter. The radioactivity remaining on the surface of the wells after the plate was washed with water and 1% phosphoric acid was determined using a Beckmann liquid scintillation counter. […] Also, the immobilization of polymer-conjugated SEK1-CT on the surfaces enhanced its phosphorylation. The radioactivity observed for the unconjugated SEK1-CT may result from non-specific binding of the amine groups on SEK1-CT to the plate. This non-specific binding could be eliminated by using polylysine as the blocking agent.

For experiment [10], the target named is T5, ERK1. Kind of experiment: One-plate assay (non-covalent, medium binding plate). The format is biochemical. The protocol:
(§5) The one-plate assay was compared with the two-plate assay under the normal conditions employed by the high throughput screening robotic system: a mixture of 5 μL substrate (5 μg), 10 µL enzyme, 10 μL ADB and 5 μL γ-^32P ATP was incubated at room temperature for 20 minutes. In the one-plate assay, a non-covalent, medium binding plate was used.

Experiment [11] has as its target T5, ERK1. The experiment can be described thus: Two-plate assay. The format is biochemical. How it is done:
as §5

For experiment [12], the target named is T6, PKB (Homo sapiens, UniProt P31749).
T6 construct: made in house; host or cells: insect cells
T6 sequence (P31749 whole entry, species assumed): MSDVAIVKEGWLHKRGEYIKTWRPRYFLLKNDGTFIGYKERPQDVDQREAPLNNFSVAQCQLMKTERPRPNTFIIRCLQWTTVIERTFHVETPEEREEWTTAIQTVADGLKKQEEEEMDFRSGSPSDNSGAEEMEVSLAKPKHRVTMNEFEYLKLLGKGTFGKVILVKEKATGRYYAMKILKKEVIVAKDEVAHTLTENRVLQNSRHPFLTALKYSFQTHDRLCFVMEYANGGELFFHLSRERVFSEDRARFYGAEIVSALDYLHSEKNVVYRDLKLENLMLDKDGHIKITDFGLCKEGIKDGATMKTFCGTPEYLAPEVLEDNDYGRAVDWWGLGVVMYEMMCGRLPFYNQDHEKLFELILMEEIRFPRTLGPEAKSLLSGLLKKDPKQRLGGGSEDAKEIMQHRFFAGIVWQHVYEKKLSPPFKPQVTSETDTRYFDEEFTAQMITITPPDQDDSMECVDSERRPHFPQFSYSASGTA
Kind of experiment: Phosphorylation of peptide substrate in solution, spotted on phosphocellulose plate, scintillation counting. The format is biochemical. The protocol: as §1, §2

Experiment [13] deals with T6, PKB. The experiment can be described thus: One-plate assay (non-covalent, medium binding plate). The format is biochemical. How it is done:
as §5

Experiment [14] has as its target T6, PKB. Kind of experiment: Two-plate assay. The format is biochemical. How it is done: as §5
Setting [15] is: free peptide before conjugation to polymer.
Where [16] appears, read: peptide after conjugation to polymer.
Where [17] appears, read: conjugated substrate, 20 minutes.

T2 sequence (Q91822 whole entry): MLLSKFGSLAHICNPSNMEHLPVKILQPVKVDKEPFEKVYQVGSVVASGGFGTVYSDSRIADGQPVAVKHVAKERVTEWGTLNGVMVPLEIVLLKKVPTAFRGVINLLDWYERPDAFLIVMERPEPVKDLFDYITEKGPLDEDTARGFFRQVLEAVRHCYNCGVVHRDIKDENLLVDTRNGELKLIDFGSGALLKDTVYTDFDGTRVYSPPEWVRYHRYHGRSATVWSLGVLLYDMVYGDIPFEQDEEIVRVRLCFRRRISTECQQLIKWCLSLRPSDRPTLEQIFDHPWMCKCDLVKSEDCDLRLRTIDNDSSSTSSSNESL
T1 sequence (P06493 whole entry, species assumed): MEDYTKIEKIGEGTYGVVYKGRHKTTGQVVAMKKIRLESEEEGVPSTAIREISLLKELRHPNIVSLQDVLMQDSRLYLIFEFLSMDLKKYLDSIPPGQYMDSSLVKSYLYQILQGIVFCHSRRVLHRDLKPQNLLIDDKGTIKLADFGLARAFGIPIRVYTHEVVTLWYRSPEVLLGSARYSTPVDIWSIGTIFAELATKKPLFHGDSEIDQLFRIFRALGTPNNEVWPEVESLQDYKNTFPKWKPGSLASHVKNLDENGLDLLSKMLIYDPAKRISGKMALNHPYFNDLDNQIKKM
T5 sequence (P27361 whole entry, species assumed): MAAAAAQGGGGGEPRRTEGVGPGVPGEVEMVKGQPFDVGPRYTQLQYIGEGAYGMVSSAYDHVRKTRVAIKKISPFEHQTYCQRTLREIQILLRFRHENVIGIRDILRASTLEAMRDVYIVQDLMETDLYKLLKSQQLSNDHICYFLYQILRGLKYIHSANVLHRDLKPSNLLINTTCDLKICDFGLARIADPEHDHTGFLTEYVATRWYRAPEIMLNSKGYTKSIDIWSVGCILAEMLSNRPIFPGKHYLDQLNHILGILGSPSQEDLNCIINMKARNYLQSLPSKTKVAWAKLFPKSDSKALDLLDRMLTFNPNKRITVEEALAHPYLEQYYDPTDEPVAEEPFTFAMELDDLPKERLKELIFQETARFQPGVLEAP

With CGRTGRRNSI [CAPK-sub], the Ratio in [1] (after/before conjugation) was determined as 3.76; in experiment [2] (after/before conjugation), 2.14; in [3] (after/before conjugation), 2.31; in experiment [4], 6.25; in [5] (after/before conjugation), 1.10. Besides, the “Radioactivity (cpm) Before Conjugation” value in experiment [1] (setting [15]) is 12500 cpm; in experiment [2] (setting [15]) it was 31050 cpm; in [3] (setting [15]) it was 18000 cpm; in experiment [4], 10000 cpm; in experiment [5] (setting [15]) it was 35680 cpm. The “Radioactivity (cpm) After conjugation” value in experiment [1] (setting [16]) was 47000 cpm; in experiment [2] (setting [16]), 66510 cpm; in experiment [3] (setting [16]), 41500 cpm; in experiment [4] it was 62500 cpm; in experiment [5] (setting [16]) it was 39425 cpm. In addition, the “Radioactivity (cpm) Free substrate” value in experiment [6] is on record as “≦300 cpm”.
As to CKILDQMPATPSSPMYVD [SEK1-CT], the Ratio in [7] (after/before conjugation) was 48.28. Moreover, the “Radioactivity (cpm) Before Conjugation” value in [7] (setting [15]) is 2390 cpm. Further, the “Radioactivity (cpm) After conjugation” value in experiment [7] (setting [16]) turned out to be 115400 cpm. Also, in [8], the “Radioactivity (cpm) Free substrate” value was under 500 cpm. Besides, the “Radioactivity (cpm)” value in [9] came out at 7570 cpm. Besides, the “S/N ratio SEK1-CT” value is listed as 117 in experiment [10] and 16 in [11]. For the same substance, the “Radioactivity (cpm) SEK1-CT/ERK1 Conj” value in [10] (setting [17]) stood at 41000 cpm. Also, the “Radioactivity (cpm) SEK1-CT/ERK1 Free” value in [11] (free substrate, 20 minutes) amounted to 2800 cpm.
For CKRPRAASFAE [PKB-sub], in [12] (after/before conjugation), the Ratio turned out to be 1.91. For the same substance, the “Radioactivity (cpm) Before Conjugation” value in experiment [12] (setting [15]) came to 54300 cpm. In [12] (setting [16]), the “Radioactivity (cpm) After conjugation” value was 103900 cpm. The results for the “S/N ratio PKB-sub” value in experiment [13] and in [14] were 81 and 22, respectively. Moreover, in [13] (setting [17]), the “Radioactivity (cpm) PKB-sub/PKB Conj” value is 48300 cpm. For the same substance, the “Radioactivity (cpm) PKB-sub/PKB Free” value in experiment [14] (free substrate, 20 minutes) is given as 38000 cpm.
For the substance CKRRRLASLR [S6K-sub], in experiment [4], the Ratio was 2.82, the “Radioactivity (cpm) Before Conjugation” value is on record as 14000 cpm and the “Radioactivity (cpm) After conjugation” value stood at 39450 cpm.
Turning to Polyarginine, in experiment [7], the “Radioactivity (cpm), polymer effect on the phosphorylation of SEK1-CT by ERK1” value is on record as 91431 cpm and the “Enhancing effect of polymeric carrier on the substrate activity” value (from here on “Enhancing effect of polymeric carrier”) was “certain enhancement”.
Polyhistidine: the “Enhancing effect of polymeric carrier” value in experiment [7] was “marginal enhancing effect”.
Regarding Polylysine, in experiment [7], the “Radioactivity (cpm), polymer effect on the phosphorylation of SEK1-CT by ERK1” value was 211234 cpm and the “Enhancing effect of polymeric carrier” value is listed as “highest enhancing effect”.

(Values after patent publication US6548266B1, “Assay for detecting the enzymatic activity of a phosphorylation enzyme using enhanced signal generation” (Kinetek Pharmaceuticals, Inc., priority 1999, dated 2003).)
